Measurements from patent US20250163130A1, “LIGAND GATED ION CHANNELS AND METHODS OF USE” (Trames Bio, Inc., priority 2022, published 2025).

Columns and labels:
Assay type in all cases: cell-based
CODA1237 = biological target: T1, CODA1237 (Homo sapiens, UniProt P36544, F159M/H163T/I152M/R155K/V154L/W156N/Y151P); assay: Anion reporter (YFP quench) plate assay, ligand response of cells expressing CODA1237 compared with CODA71; conditions: FIG. 1, various ligand doses
T1 construct: expressed in transfected cells; host or cells: Lenti-X 293T (LX293T, Clontech) stably expressing mutant YFP (H148Q/I152L) reporter

HEK293T cells = system: HEK293T cells
[1] = system: Lenti-X 293T cells expressing mutant YFP reporter; assay: Anion reporter (YFP quench) plate assay, responsiveness of engineered receptors to acetylcholine or TC-5619; conditions: FIG. 3, increasing doses of acetylcholine

Molecule | Responsiveness (percent quench of YFP fluorescence) of cells expressing CODA1237 compared with cells expressing CODA71 (CODA1237) | Surface expression level (mean fluorescent intensity of α-bungarotoxin staining positive cells) (HEK293T cells) | Responsiveness to acetylcholine (percent quench of YFP) using CODA71 as the reference point [1] | Percentage of surface expressing (α-bungarotoxin staining positive) cells (HEK293T cells)
O=C(N[C@@H]1CN2CCC1CC2)c1n[nH]c2ccccc12 [RG3487] | more responsive |  |  | 
c1ccc(-c2nnc(O[C@@H]3C4CC5C[C@H]3CN(C5)C4)s2)cc1 [ABT-126] | more responsive |  |  | 
CODA1298: α7-nAChR(Gly-cys) LBD: GlyRα2 IPD, SEQ ID NO: 65 comprising T225I mutation (protein, CHRNA7 (Cys-loop)/GLRA2) MRCSPGGVWLALAASLLHVSLQGEFQRKLYKELVKNYNPLERPVANDSQPLTVYFSLSLLQIMDVDEKNQVLTTNIWLQMSWTDHYLQWNVSEYPGVKTVRFPDGQIWKPDILLYNSADERFDATFHTNVLVNSSGHCQYLPPGIFKSSCPMDLKNFPMDVQTCKLKFGSWSYGGWSLDLQMQEADISGYIPNGEWDLVGIPGKRSERFYECCKEPYPDVTFTVIMRRRMGYYLIQMYIPSLLIVILSWVSFWINMDAAPARVALGITTVLTMTTQSSGSRASLPKVSYVKAIDIWMAVCLLFVFAALLEYAAVNFVSRQHKEFLRLRRRQKRQNKEEDVTRESRFNFSGYGMGHCLQVKDGTAVKATPANPLPQPPKDGDAIKKKFVDRAKRIDTISRAAFPLAFLIFNIFYWITYKIIRHEDVHKK |  | improves the surface expression level |  | 
CODA1237: α7-nAChR(Gly-cys) LBD: GlyRα2 IPD, SEQ ID NO: 65 (protein, CHRNA7 (Cys-loop)/GLRA2) MRCSPGGVWLALAASLLHVSLQGEFQRKLYKELVKNYNPLERPVANDSQPLTVYFSLSLLQIMDVDEKNQVLTTNIWLQMSWTDHYLQWNVSEYPGVKTVRFPDGQIWKPDILLYNSADERFDATFHTNVLVNSSGHCQYLPPGIFKSSCPMDLKNFPMDVQTCKLKFGSWSYGGWSLDLQMQEADISGYIPNGEWDLVGIPGKRSERFYECCKEPYPDVTFTVTMRRRMGYYLIQMYIPSLLIVILSWVSFWINMDAAPARVALGITTVLTMTTQSSGSRASLPKVSYVKAIDIWMAVCLLFVFAALLEYAAVNFVSRQHKEFLRLRRRQKRQNKEEDVTRESRFNFSGYGMGHCLQVKDGTAVKATPANPLPQPPKDGDAIKKKFVDRAKRIDTISRAAFPLAFLIFNIFYWITYKIIRHEDVHKK |  | higher surface expression |  | 
CODA1344: α7-nAChR LBD: GlyRα3 isoform L IPD, SEQ ID NO: 63 (protein, CHRNA7/GLRA3 isoform L) MRCSPGGVWLALAASLLHVSLQGEFQRKLYKELVKNYNPLERPVANDSQPLTVYFSLSLLQIMDVDEKNQVLTTNIWLQMSWTDHYLQWNVSEYPGVKTVRFPDGQIWKPDILLYNSADERFDATFHTNVLVNSSGHCQYLPPGIFKSSCYIDVRWFPFDVQHCKLKFGSWSYGGWSLDLQMQEADISGYIPNGEWDLVGIPGKRSERFYECCKEPYPDVTFTVTMRRRMGYYLIQMYIPSLLIVILSWVSFWINMDAAPARVALGITTVLTMTTQSSGSRASLPKVSYVKAIDIWMAVCLLFVFSALLEYAAVNFVSRQHKELLRFRRKRKNKTEAFALEKFYRFSDMDDEVRESRFSFTAYGMGPCLQAKDGMTPKGPNHPVQVMPKSPDEMRKVFIDRAKKIDTISRACFPLAFLIFNIFYWVIYKILRHEDIHQQQD |  |  | lower responsiveness | 
CODA1343: α7-nAChR(Gly-cys) LBD: GlyRα3 isoform K IPD, SEQ ID NO: 71 (protein, CHRNA7_(Cys-loop)/GLRA3 isoform K) MRCSPGGVWLALAASLLHVSLQGEFQRKLYKELVKNYNPLERPVANDSQPLTVYFSLSLLQIMDVDEKNQVLTTNIWLQMSWTDHYLQWNVSEYPGVKTVRFPDGQIWKPDILLYNSADERFDATFHTNVLVNSSGHCQYLPPGIFKSSCPMDLKNFPMDVQTCKLKFGSWSYGGWSLDLQMQEADISGYIPNGEWDLVGIPGKRSERFYECCKEPYPDVTFTVTMRRRMGYYLIQMYIPSLLIVILSWVSFWINMDAAPARVALGITTVLTMTTQSSGSRASLPKVSYVKAIDIWMAVCLLFVFSALLEYAAVNFVSRQHKELLRFRRKRKNKDDEVRESRFSFTAYGMGPCLQAKDGMTPKGPNHPVQVMPKSPDEMRKVFIDRAKKIDTISRACFPLAFLIFNIFYWVIYKILRHEDIHQQQD |  | higher surface expression | higher responsiveness | higher percentage of surface expressing cells
CODA1345: α7-nAChR LBD: GlyRα3 isoform K IPD, SEQ ID NO: 70 (protein, CHRNA7/GLRA3 isoform K) MRCSPGGVWLALAASLLHVSLQGEFQRKLYKELVKNYNPLERPVANDSQPLTVYFSLSLLQIMDVDEKNQVLTTNIWLQMSWTDHYLQWNVSEYPGVKTVRFPDGQIWKPDILLYNSADERFDATFHTNVLVNSSGHCQYLPPGIFKSSCYIDVRWFPFDVQHCKLKFGSWSYGGWSLDLQMQEADISGYIPNGEWDLVGIPGKRSERFYECCKEPYPDVTFTVTMRRRMGYYLIQMYIPSLLIVILSWVSFWINMDAAPARVALGITTVLTMTTQSSGSRASLPKVSYVKAIDIWMAVCLLFVFSALLEYAAVNFVSRQHKELLRFRRKRKNKDDEVRESRFSFTAYGMGPCLQAKDGMTPKGPNHPVQVMPKSPDEMRKVFIDRAKKIDTISRACFPLAFLIFNIFYWVIYKILRHEDIHQQQD |  | higher surface expression |  | higher percentage of surface expressing cells
